Substitutions are numbered along the chain they refer to.

The target of test [1] is T1, human CLDN4 (human, UniProt O14493 1-209).
T1 construct: also called hCLDN4
T1 sequence: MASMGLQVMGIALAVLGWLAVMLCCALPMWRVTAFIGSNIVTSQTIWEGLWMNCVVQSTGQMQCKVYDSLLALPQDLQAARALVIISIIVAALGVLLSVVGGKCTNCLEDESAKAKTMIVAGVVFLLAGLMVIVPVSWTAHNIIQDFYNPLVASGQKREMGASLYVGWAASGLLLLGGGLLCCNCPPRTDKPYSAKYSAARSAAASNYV
The experiment in a line: flow cytometry on Ba/F3 cells forced to express human CLDN4.

Test [2] concerns the target T2, human CLDN9 (human, UniProt O95484 1-217).
T2 construct: also called hCLDN9
T2 sequence: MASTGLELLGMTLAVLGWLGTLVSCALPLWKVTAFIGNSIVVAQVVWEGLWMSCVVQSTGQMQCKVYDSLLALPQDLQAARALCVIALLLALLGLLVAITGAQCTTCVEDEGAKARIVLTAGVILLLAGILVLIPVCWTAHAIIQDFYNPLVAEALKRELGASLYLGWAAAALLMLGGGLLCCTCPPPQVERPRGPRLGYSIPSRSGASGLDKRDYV
The experiment in a line: flow cytometry on Ba/F3 cells forced to express human CLDN9.

B1: AE1-16 (antibody, V domains shown)
VH: EVQLQQSGPELVKPGASVKISCKASGYSFTGYFMNWVKQSHGKSLEWIGRINPYNGDTFYNQKFKGKATLTVDKSSNTAHMELRSLTSEDSAVYYCARVLFLDFDDPYLMDYWGQGTSVTVSS
VL: ENVLTQSPAIMSATLGEKVTMSCRATSNVKYMYWYQQKSGASPKLWIYYTSNLASGVPARFSGSGSGTSYSLTISSVEAADAATYYCQQFTSSPSTFGAGTKLELK
notes: also called anti-human CLDN6 monoclonal antibody AE1-16
As to B1, the binding result in test [1] and in test [2] was “binds” each time.

B2: AE49-11 (antibody, IgG2b, V domains shown)
VH: B1 VH with N77S
VL: B1 VL
notes: also called AE49-11 antibody; original IgG2b antibody
Consider B2, for which the binding result in test [1] and in test [2] was “binds” each time.

B3: AB3-1 (antibody, V domains shown)
VH: EVQLQQSGPELVKPGGSMKISCKASGYSFTGYTMNWVKQSHGKNLEWIGLINPYNGGISYNQKFKDKATLTMDKSSSTAYMELLSLTSEDSAIYFCARDYRYEGFDYWGQGTLVTVSA
VL: QIVLTQSPAIMSASLGERVTMTCTASSVVISTYLHWYQQKPGSSPKLWIYSTSNLASGVPVRFSGSGSGTSYSLTISSMEAEDAATYYCHQYHRSPWTFGGGTKLEIK
notes: also called anti-human CLDN6 monoclonal antibody AB3-1
On to B3, for which the binding result in test [2] is listed as “binds”.

Source of the values: patent US20110059469A1 (UNIVERSITY OF TOKYO, published 2011).
